Data from US20150315270A1 (CONSEJO NACIONAL DE INVESTIGATION CIENTIFICA, published 2015).

T1: mouse VEGF-A (mouse, UniProt Q00731-2 27-190, limits assumed)
T1 sequence (looked up): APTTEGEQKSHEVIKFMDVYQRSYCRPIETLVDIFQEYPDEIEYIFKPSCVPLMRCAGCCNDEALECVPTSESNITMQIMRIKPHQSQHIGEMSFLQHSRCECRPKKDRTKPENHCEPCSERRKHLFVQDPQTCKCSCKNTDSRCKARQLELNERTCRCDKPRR

T2: human VEGF-B186 (human, UniProt P49765 22-207)
T2 construct: also called Vascular endothelial growth factor antigen B
T2 sequence: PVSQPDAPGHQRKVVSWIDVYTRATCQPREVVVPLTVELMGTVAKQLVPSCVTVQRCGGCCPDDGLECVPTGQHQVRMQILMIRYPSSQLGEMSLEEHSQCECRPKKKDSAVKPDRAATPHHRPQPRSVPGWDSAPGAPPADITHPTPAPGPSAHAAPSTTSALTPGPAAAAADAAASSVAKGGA

B1: mMcA-AB1-anti-VEGF-A (mouse monoclonal antibody A-AB1-anti-VEGF-A) (antibody, V domains shown)
VH: QVKLLESGPELKKPGETVKISCKASGYTFTNFGMNWVKQAPGKGLKWMGWINTNTGEPTYVDDFKGRFAFSLETSASSAYLQISNLNNEDTATYFCARYYGSTSVWYFDVWGAGTTVTVSS
VL: ELVMTQTPSSLSASLGDRVTITCRASQDIFNYLNWYQQKPDGPIKLLIYYSSRLHSGVPSRFSGSGSGTDYSLTISNLDREDIATYFCQQGFTLPWTFGGGTKLEIKR
notes: also called mMc-AB1-anti-VEGF-A; mouse AB1 antibody
B2: hMcA-AB1-anti-VEGF-A (humanized monoclonal antibody A-AB1-anti-VEGF-A) (antibody, human IgG1, V domains shown)
VH: QVQLVQSGSELKKPGASVKVSCKASGYTFTNFGMNWVRQAPGQGLEWMGWINTNTGEPTYVDDFKGRFVFSLDTSVSTAYLQISSLKAEDTAVYYCARYYGSTSVWYFDVWGRGTLVTVSS
VL: DIQMTQSPSSLSASVGDRVTITCRASQDIFNYLNWYQQKPGKAPKLLIYYSSRLHSGVPSRFSGSGSGTDFTFTISSLQPEDIATYYCQQGFTLPWTFGQGTKVEIKR
notes: The constant regions come from the vectors pFUSE-CHIg-hG1 (human IgG1 heavy) and pFUSE2-CLIg-hk (human kappa light); also called hMcA-AB1-VEGF-A; humanized mMc-AB1-anti-VEGF-A

Key:
mouse VEGF-A = molecular target: T1, mouse VEGF-A; test: ELISA and SPR
human VEGF-A165 [1] = molecular target: T3, human VEGF-A165 (human, UniProt P15692 207-395); test: cell-based or functional assay
human VEGF-A165 [2] = molecular target: T3, human VEGF-A165; test: SPR, Biacore T100, kinetic analysis, 1:1 model
human VEGF-B186 = molecular target: T2, human VEGF-B186; test: SPR, Biacore T100, antibody (6.30-0.18 uM) injected over immobilized VEGF-B186 (4000 RU), 1:1 model
Description: KA and KD respectively, were determined by kinetic analysis fitting a 1:1 interaction model using biacore T100 Evaluation software.

human VEGF-A165 [3] = molecular target: T3, human VEGF-A165; test: SPR, BIAcore T100, kinetic analysis, 1:1 model
Description: Affinity and Dissociation Constants, KA and KD, respectively, were determined by kinetic analysis fitting a 1:1 interaction model using the BIAcore T100 evaluation software.

Row | Binder | binding result (mouse VEGF-A) | IC50, HUVEC proliferation assay (human VEGF-A165 [1]) [µg/mL] | IC50 in the HUVEC proliferation assay against that of bevacizumab (human VEGF-A165 [1]) [fold lower] | Kd (human VEGF-A165 [2]) [pM] | koff (human VEGF-A165 [2]) [s⁻¹] | kon (human VEGF-A165 [2]) [M⁻¹ s⁻¹] | koff (human VEGF-B186) [s⁻¹] | kon (human VEGF-B186) [M⁻¹ s⁻¹] | Ka (human VEGF-A165 [3]) [M⁻¹] | Kd (human VEGF-A165 [3]) [pM] | koff (human VEGF-A165 [3]) [s⁻¹] | kon (human VEGF-A165 [3]) [M⁻¹ s⁻¹]
1 | B1 | no binding | ~0.011 | 5 | 5.3 | 9.9e-05 | 1.87e+07 | 0.00571 | 32800 | – | – | – | –
2 | B2 | no binding | ~0.019 | 3 | – | – | – | – | – | 9.24e+09 | 109 | 0.000421 | 3.83e+06
